# Results from article PMC10786891, “Massively parallel profiling of RNA-targeting CRISPR-Cas13d”.
# Positions count from the first letter of the chain named. Numbers in names are those of the source.
# T1: EsCas13d, nuclease-dead (Eubacterium siraeum, UniProt B0MS50, R295A;H300A;R849A;H854A)
# T1 sequence: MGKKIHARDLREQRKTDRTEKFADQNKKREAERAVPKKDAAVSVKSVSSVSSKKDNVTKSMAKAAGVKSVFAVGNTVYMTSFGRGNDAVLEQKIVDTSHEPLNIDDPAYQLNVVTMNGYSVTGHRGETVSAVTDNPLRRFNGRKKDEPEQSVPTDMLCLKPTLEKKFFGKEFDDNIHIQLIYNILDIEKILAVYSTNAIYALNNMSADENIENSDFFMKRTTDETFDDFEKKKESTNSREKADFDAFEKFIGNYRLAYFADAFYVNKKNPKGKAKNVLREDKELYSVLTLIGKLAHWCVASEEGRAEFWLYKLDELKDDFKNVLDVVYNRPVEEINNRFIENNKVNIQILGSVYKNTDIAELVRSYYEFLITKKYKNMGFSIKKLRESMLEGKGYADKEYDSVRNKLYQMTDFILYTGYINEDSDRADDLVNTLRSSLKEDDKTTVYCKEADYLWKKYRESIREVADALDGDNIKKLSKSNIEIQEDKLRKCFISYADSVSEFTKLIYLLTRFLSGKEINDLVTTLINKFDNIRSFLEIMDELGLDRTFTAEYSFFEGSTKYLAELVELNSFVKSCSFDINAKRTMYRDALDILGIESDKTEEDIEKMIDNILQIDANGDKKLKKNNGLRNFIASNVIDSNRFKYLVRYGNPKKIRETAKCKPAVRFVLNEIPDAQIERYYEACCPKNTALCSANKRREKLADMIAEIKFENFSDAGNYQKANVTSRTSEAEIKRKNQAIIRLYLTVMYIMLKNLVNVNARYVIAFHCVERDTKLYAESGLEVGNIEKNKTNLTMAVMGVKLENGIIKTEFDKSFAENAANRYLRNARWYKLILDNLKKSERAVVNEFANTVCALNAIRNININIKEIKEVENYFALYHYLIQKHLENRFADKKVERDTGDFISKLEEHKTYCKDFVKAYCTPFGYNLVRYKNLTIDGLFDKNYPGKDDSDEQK
# B1: target 2 MT 5'PFS UGC 3'PFS UCG (mixed)
# RNA 1: CACCCGUGCAAAAUUGCAGGGGUCUAAAACCUUCUCCAAAUUGUUUCAUCCU
# RNA 2: GGGAAUGGAUCCACAUCUACGAAUUCUGCAGGAUGAAACAAUUUGGAGAAGUCGAGAUCGGAAGAGCACACGU
# B2: target 2 MT 5'PFS UAC 3'PFS UAG (mixed)
# RNA 1: B1 RNA 1
# RNA 2: B1 RNA 2 with G28A, C53A
# B3: target 2 MT 5'PFS CUA 3'PFS CAC (mixed)
# RNA 1: B1 RNA 1
# RNA 2: B1 RNA 2 with U27C, G28U, C29A, U52C, C53A, G54C
# B4: target 2 MT 5'PFS GUG 3'PFS CCA (mixed)
# RNA 1: B1 RNA 1
# RNA 2: B1 RNA 2 with U27G, G28U, C29G, U52C, G54A
# B5: target 2 MT 5'PFS UAC 3'PFS AGG (mixed)
# RNA 1: B1 RNA 1
# RNA 2: B1 RNA 2 with G28A, U52A, C53G
# B6: target 2 MT 5'PFS GAC 3'PFS CGA (mixed)
# RNA 1: B1 RNA 1
# RNA 2: B1 RNA 2 with U27G, G28A, U52C, C53G, G54A
# B7: target 2 MT 5'PFS UGC 3'PFS CCA (mixed)
# RNA 1: B1 RNA 1
# RNA 2: B1 RNA 2 with U52C, G54A
# B8: target 2 MT 5'PFS UGC 3'PFS AAC (mixed)
# RNA 1: B1 RNA 1
# RNA 2: B1 RNA 2 with U52A, C53A, G54C
# B9: target 2 MT 5'PFS UGA 3'PFS CUA (mixed)
# RNA 1: B1 RNA 1
# RNA 2: B1 RNA 2 with C29A, U52C, C53U, G54A
# B10: target 2 MT 5'PFS UGC 3'PFS UCA (mixed)
# RNA 1: B1 RNA 1
# RNA 2: B1 RNA 2 with G54A
# B11: target 2 MT 5'PFS ACC 3'PFS AUU (mixed)
# RNA 1: B1 RNA 1
# RNA 2: B1 RNA 2 with U27A, G28C, U52A, C53U, G54U
# B12: target 2 MT 5'PFS UGA 3'PFS CUC (mixed)
# RNA 1: B1 RNA 1
# RNA 2: B1 RNA 2 with C29A, U52C, C53U, G54C
# B13: target 2 MT 5'PFS ACC 3'PFS AUG (mixed)
# RNA 1: B1 RNA 1
# RNA 2: B1 RNA 2 with U27A, G28C, U52A, C53U
# B14: target 2 MT 5'PFS CGG 3'PFS UGA (mixed)
# RNA 1: B1 RNA 1
# RNA 2: B1 RNA 2 with U27C, C29G, C53G, G54A
# B15: target 2 MT 5'PFS AGU 3'PFS CCA (mixed)
# RNA 1: B1 RNA 1
# RNA 2: B1 RNA 2 with U27A, C29U, U52C, G54A
# B16: target 2 MT 5'PFS CGG 3'PFS UGC (mixed)
# RNA 1: B1 RNA 1
# RNA 2: B1 RNA 2 with U27C, C29G, C53G, G54C
# B17: target 2 MT 5'PFS ACC 3'PFS AUC (mixed)
# RNA 1: B1 RNA 1
# RNA 2: B1 RNA 2 with U27A, G28C, U52A, C53U, G54C
# B18: target 2 MT 5'PFS ACA 3'PFS UCC (mixed)
# RNA 1: B1 RNA 1
# RNA 2: B1 RNA 2 with U27A, G28C, C29A, G54C
# B19: target 2 MT 5'PFS UAC 3'PFS AGC (mixed)
# RNA 1: B1 RNA 1
# RNA 2: B1 RNA 2 with G28A, U52A, C53G, G54C
# B20: target 2 MT 5'PFS CGG 3'PFS UGU (mixed)
# RNA 1: B1 RNA 1
# RNA 2: B1 RNA 2 with U27C, C29G, C53G, G54U
# B21: target 2 MT 5'PFS UAA 3'PFS CGC (mixed)
# RNA 1: B1 RNA 1
# RNA 2: B1 RNA 2 with G28A, C29A, U52C, C53G, G54C
# B22: target 2 MT 5'PFS ACA 3'PFS UCU (mixed)
# RNA 1: B1 RNA 1
# RNA 2: B1 RNA 2 with U27A, G28C, C29A, G54U
# B23: target 2 MT 5'PFS UAC 3'PFS UAC (mixed)
# RNA 1: B1 RNA 1
# RNA 2: B1 RNA 2 with G28A, C53A, G54C
# B24: target 2 MT 5'PFS AGU 3'PFS CCG (mixed)
# RNA 1: B1 RNA 1
# RNA 2: B1 RNA 2 with U27A, C29U, U52C
# B25: target 2 MT 5'PFS ACC 3'PFS AUA (mixed)
# RNA 1: B1 RNA 1
# RNA 2: B1 RNA 2 with U27A, G28C, U52A, C53U, G54A
# B26: target 2 MT 5'PFS GUG 3'PFS CCG (mixed)
# RNA 1: B1 RNA 1
# RNA 2: B1 RNA 2 with U27G, G28U, C29G, U52C
# B27: target 2 MT 5'PFS UAU 3'PFS UCA (mixed)
# RNA 1: B1 RNA 1
# RNA 2: B1 RNA 2 with G28A, C29U, G54A
# B28: target 2 MT 5'PFS UGC 3'PFS AAG (mixed)
# RNA 1: B1 RNA 1
# RNA 2: B1 RNA 2 with U52A, C53A
# B29: target 2 MT 5'PFS UAC 3'PFS AGA (mixed)
# RNA 1: B1 RNA 1
# RNA 2: B1 RNA 2 with G28A, U52A, C53G, G54A
# B30: target 2 MT 5'PFS UGC 3'PFS CCG (mixed)
# RNA 1: B1 RNA 1
# RNA 2: B1 RNA 2 with U52C
# B31: target 2 MT 5'PFS CGC 3'PFS CCA (mixed)
# RNA 1: B1 RNA 1
# RNA 2: B1 RNA 2 with U27C, U52C, G54A
# B32: target 2 MT 5'PFS UGC 3'PFS AAA (mixed)
# RNA 1: B1 RNA 1
# RNA 2: B1 RNA 2 with U52A, C53A, G54A
# B33: target 2 MT 5'PFS CUU 3'PFS AGA (mixed)
# RNA 1: B1 RNA 1
# RNA 2: B1 RNA 2 with U27C, G28U, C29U, U52A, C53G, G54A
# B34: target 2 MT 5'PFS CGC 3'PFS CCG (mixed)
# RNA 1: B1 RNA 1
# RNA 2: B1 RNA 2 with U27C, U52C
# B35: target 1 insG 3' of 16,insU 3' of 13 (mixed)
# RNA 1: CACCCGUGCAAAAAUGCAGGGGUCUAAAACUGAGCGGAUAACCUCUCUAUGG
# RNA 2: GGGAAUGGAUCCACAUCUACGAAUUCGUACCAUAGAGGAGUGUUAUCCGCUCACCGAGAUCGGAAGAGCACACGU
# B36: target 1 C4A,C21A (mixed)
# RNA 1: B35 RNA 1
# RNA 2: GGGAAUGGAUCCACAUCUACGAAUUCGUACAAUAGAGAGGUUAUCCGAUCACCGAGAUCGGAAGAGCACACGU
# B37: target 1 insC 3' of 13,insA 3' of 6 (mixed)
# RNA 1: B35 RNA 1
# RNA 2: B35 RNA 2 with G38A, A39G, G40C, U41G, G42U, U44A, A45U, U46C, C48A
# B38: target 1 U3G,A18C (mixed)
# RNA 1: B35 RNA 1
# RNA 2: B36 RNA 2 with A31C, A34C, A48C, U49G
# Molecular target: T1, EsCas13d, nuclease-dead
# Assay: crRNA (strand 1, pre-loaded); Mg2+; 40 mM Tris-HCl pH 7.5, 150 mM NaCl, 6 mM MgCl2, 1 mM DTT, 0.1% Tween-20, 0.2 mg/ml BSA; 25 C; 10 min per concentration, then washed
# Settings: tags: His6-TwinStrep-SUMO cleaved; N-terminal SNAP kept (SNAP-Surface 488); label: 3' end held by stalled T7 RNA polymerase
row,Binder,Kd [nM]
1,B1,60 ± 24
2,B2,6.7 ± 0.6
3,B3,3.01 ± 0.32
4,B4,21.2 ± 1.8
5,B5,4.7 ± 0.7
6,B6,13.6 ± 1.5
7,B7,16 ± 5
8,B8,13 ± 4
9,B9,8.7 ± 1.1
10,B10,10.4 ± 1.8
11,B11,~12
12,B12,47 ± 20
13,B13,5.8 ± 1.5
14,B14,6.9 ± 1.3
15,B15,36 ± 11
16,B16,4.3 ± 0.5
17,B17,5.5 ± 0.7
18,B18,10 ± 2.5
19,B19,4.2 ± 0.5

row,Binder,Kd [nM]
1,B20,9.3 ± 1.6
2,B21,4.3 ± 0.5
3,B22,8.6 ± 2.3
4,B23,6.2 ± 0.8
5,B24,10.2 ± 0.9
6,B25,6.7 ± 3.2
7,B26,13.6 ± 0.9
8,B27,24 ± 5
9,B28,15 ± 3.3
10,B29,6.7 ± 0.9
11,B30,61 ± 15
12,B31,22 ± 4
13,B32,14 ± 5
14,B33,2.9 ± 0.4
15,B34,8.1 ± 1.3
16,B35,23.2 ± 3.2
17,B36,41 ± 9
18,B37,11.7 ± 0.9
19,B38,52 ± 4
